{
  "source": "the Human Domainome abundance scans (Beltran et al. 2025)",
  "note": "± gives the uncertainty stated by the source.",
  "data": [
    {"assay": "abundance fitness (aPCA) (normalised: wild type 0, dead -1); higher = more abundant; growth selection in yeast, the domain comes from the species named", "conditions": "Homo sapiens", "values": [
      {"substance": "Transcription factor SOX-4 S70A, Q06945", "abundance fitness": "0.014 ± 0.057"},
      {"substance": "Transcription factor SOX-4 S103L, Q06945", "abundance fitness": "-0.454 ± 0.082"}
    ]},
    {"assay": "abundance fitness (aPCA) (normalised: wild type 0, dead -1); higher = more abundant; growth selection in yeast, the domain comes from the species named", "conditions": "Saccharomyces cerevisiae (strain ATCC 204508 / S288c)", "values": [
      {"substance": "E3 ubiquitin-protein ligase RSP5 H352E, P39940", "abundance fitness": "-0.296 ± 0.056"},
      {"substance": "E3 ubiquitin-protein ligase RSP5 T327M, P39940", "abundance fitness": "0.103 ± 0.077"},
      {"substance": "E3 ubiquitin-protein ligase RSP5 G324L, P39940", "abundance fitness": "-0.328 ± 0.13"},
      {"substance": "E3 ubiquitin-protein ligase RSP5 H352G, P39940", "abundance fitness": "-0.229 ± 0.04"},
      {"substance": "E3 ubiquitin-protein ligase RSP5 L330W, P39940", "abundance fitness": "-0.161 ± 0.054"},
      {"substance": "E3 ubiquitin-protein ligase RSP5 T326F, P39940", "abundance fitness": "-0.02 ± 0.09"},
      {"substance": "E3 ubiquitin-protein ligase RSP5 E338D, P39940", "abundance fitness": "-0.022 ± 0.13"},
      {"substance": "E3 ubiquitin-protein ligase RSP5 E338F, P39940", "abundance fitness": "-0.73 ± 0.14"},
      {"substance": "E3 ubiquitin-protein ligase RSP5 T356S, P39940", "abundance fitness": "0.034 ± 0.05"},
      {"substance": "E3 ubiquitin-protein ligase RSP5 P343Q, P39940", "abundance fitness": "-0.041 ± 0.059"},
      {"substance": "E3 ubiquitin-protein ligase RSP5 D351A, P39940", "abundance fitness": "-0.731 ± 0.053"},
      {"substance": "E3 ubiquitin-protein ligase RSP5 S335R, P39940", "abundance fitness": "-0.129 ± 0.051"},
      {"substance": "E3 ubiquitin-protein ligase RSP5 E332D, P39940", "abundance fitness": "0.038 ± 0.074"},
      {"substance": "E3 ubiquitin-protein ligase RSP5 Y348Q, P39940", "abundance fitness": "-0.637 ± 0.054"},
      {"substance": "E3 ubiquitin-protein ligase RSP5 W337C, P39940", "abundance fitness": "-0.4 ± 0.087"},
      {"substance": "E3 ubiquitin-protein ligase RSP5 W359Y, P39940", "abundance fitness": "0.171 ± 0.08"},
      {"substance": "E3 ubiquitin-protein ligase RSP5 Q365S, P39940", "abundance fitness": "0.038 ± 0.062"},
      {"substance": "E3 ubiquitin-protein ligase RSP5 P362K, P39940", "abundance fitness": "-1.01 ± 0.1"},
      {"substance": "E3 ubiquitin-protein ligase RSP5 E332P, P39940", "abundance fitness": "-0.128 ± 0.057"},
      {"substance": "E3 ubiquitin-protein ligase RSP5 G331H, P39940", "abundance fitness": "-0.009 ± 0.15"},
      {"substance": "E3 ubiquitin-protein ligase RSP5 P362M, P39940", "abundance fitness": "-1.2 ± 0.35"},
      {"substance": "E3 ubiquitin-protein ligase RSP5 T354C, P39940", "abundance fitness": "-0.196 ± 0.088"},
      {"substance": "E3 ubiquitin-protein ligase RSP5 T356Y, P39940", "abundance fitness": "-0.381 ± 0.12"},
      {"substance": "E3 ubiquitin-protein ligase RSP5 S328N, P39940", "abundance fitness": "0.1 ± 0.071"},
      {"substance": "E3 ubiquitin-protein ligase RSP5 F341P, P39940", "abundance fitness": "-0.669 ± 0.082"},
      {"substance": "E3 ubiquitin-protein ligase RSP5 G331P, P39940", "abundance fitness": "-0.249 ± 0.07"},
      {"substance": "E3 ubiquitin-protein ligase RSP5 R340D, P39940", "abundance fitness": "-0.256 ± 0.074"},
      {"substance": "E3 ubiquitin-protein ligase RSP5 T356R, P39940", "abundance fitness": "-0.32 ± 0.042"},
      {"substance": "E3 ubiquitin-protein ligase RSP5 E332I, P39940", "abundance fitness": "-0.225 ± 0.087"},
      {"substance": "E3 ubiquitin-protein ligase RSP5 D361V, P39940", "abundance fitness": "-0.607 ± 0.043"},
      {"substance": "E3 ubiquitin-protein ligase RSP5 Q339W, P39940", "abundance fitness": "-0.406 ± 0.046"},
      {"substance": "E3 ubiquitin-protein ligase RSP5 E332L, P39940", "abundance fitness": "-0.459 ± 0.051"},
      {"substance": "E3 ubiquitin-protein ligase RSP5 Y348F, P39940", "abundance fitness": "-0.146 ± 0.09"},
      {"substance": "E3 ubiquitin-protein ligase RSP5 L330E, P39940", "abundance fitness": "0.013 ± 0.063"},
      {"substance": "E3 ubiquitin-protein ligase RSP5 R346F, P39940", "abundance fitness": "-0.042 ± 0.069"},
      {"substance": "E3 ubiquitin-protein ligase RSP5 F341S, P39940", "abundance fitness": "-0.066 ± 0.06"},
      {"substance": "E3 ubiquitin-protein ligase RSP5 Y348C, P39940", "abundance fitness": "-0.574 ± 0.09"},
      {"substance": "E3 ubiquitin-protein ligase RSP5 G331W, P39940", "abundance fitness": "-0.329 ± 0.049"},
      {"substance": "E3 ubiquitin-protein ligase RSP5 G336P, P39940", "abundance fitness": "-0.755 ± 0.057"},
      {"substance": "E3 ubiquitin-protein ligase RSP5 T326N, P39940", "abundance fitness": "0.105 ± 0.087"},
      {"substance": "E3 ubiquitin-protein ligase RSP5 A347C, P39940", "abundance fitness": "0.08 ± 0.095"},
      {"substance": "E3 ubiquitin-protein ligase RSP5 L330I, P39940", "abundance fitness": "0.007 ± 0.062"},
      {"substance": "E3 ubiquitin-protein ligase RSP5 W359S, P39940", "abundance fitness": "-0.249 ± 0.049"},
      {"substance": "E3 ubiquitin-protein ligase RSP5 V360I, P39940", "abundance fitness": "0.186 ± 0.1"},
      {"substance": "E3 ubiquitin-protein ligase RSP5 G324C, P39940", "abundance fitness": "0.204 ± 0.12"},
      {"substance": "E3 ubiquitin-protein ligase RSP5 R346H, P39940", "abundance fitness": "0.289 ± 0.096"},
      {"substance": "E3 ubiquitin-protein ligase RSP5 R363G, P39940", "abundance fitness": "-0.276 ± 0.041"},
      {"substance": "E3 ubiquitin-protein ligase RSP5 G331F, P39940", "abundance fitness": "-0.126 ± 0.084"},
      {"substance": "E3 ubiquitin-protein ligase RSP5 L333M, P39940", "abundance fitness": "-0.037 ± 0.097"},
      {"substance": "E3 ubiquitin-protein ligase RSP5 T326Y, P39940", "abundance fitness": "-0.061 ± 0.072"},
      {"substance": "E3 ubiquitin-protein ligase RSP5 G329M, P39940", "abundance fitness": "0.061 ± 0.098"},
      {"substance": "E3 ubiquitin-protein ligase RSP5 G324M, P39940", "abundance fitness": "0.105 ± 0.12"},
      {"substance": "E3 ubiquitin-protein ligase RSP5 R363I, P39940", "abundance fitness": "-0.473 ± 0.061"},
      {"substance": "E3 ubiquitin-protein ligase RSP5 Q339F, P39940", "abundance fitness": "-0.26 ± 0.074"},
      {"substance": "E3 ubiquitin-protein ligase RSP5 T357K, P39940", "abundance fitness": "-0.393 ± 0.069"},
      {"substance": "E3 ubiquitin-protein ligase RSP5 G345R, P39940", "abundance fitness": "-0.219 ± 0.047"},
      {"substance": "E3 ubiquitin-protein ligase RSP5 T356N, P39940", "abundance fitness": "-0.285 ± 0.18"},
      {"substance": "E3 ubiquitin-protein ligase RSP5 E338N, P39940", "abundance fitness": "-0.501 ± 0.09"},
      {"substance": "E3 ubiquitin-protein ligase RSP5 R355M, P39940", "abundance fitness": "-0.065 ± 0.07"},
      {"substance": "E3 ubiquitin-protein ligase RSP5 Q366Y, P39940", "abundance fitness": "0.307 ± 0.21"},
      {"substance": "E3 ubiquitin-protein ligase RSP5 F349A, P39940", "abundance fitness": "-0.708 ± 0.047"},
      {"substance": "E3 ubiquitin-protein ligase RSP5 P362A, P39940", "abundance fitness": "-0.747 ± 0.046"},
      {"substance": "E3 ubiquitin-protein ligase RSP5 G336L, P39940", "abundance fitness": "-0.575 ± 0.062"},
      {"substance": "E3 ubiquitin-protein ligase RSP5 Q366H, P39940", "abundance fitness": "-0.304 ± 0.19"},
      {"substance": "E3 ubiquitin-protein ligase RSP5 F341E, P39940", "abundance fitness": "0.068 ± 0.064"},
      {"substance": "E3 ubiquitin-protein ligase RSP5 S335W, P39940", "abundance fitness": "-0.278 ± 0.064"},
      {"substance": "E3 ubiquitin-protein ligase RSP5 Q339L, P39940", "abundance fitness": "-0.109 ± 0.051"},
      {"substance": "E3 ubiquitin-protein ligase RSP5 H352D, P39940", "abundance fitness": "-0.325 ± 0.099"},
      {"substance": "E3 ubiquitin-protein ligase RSP5 T326G, P39940", "abundance fitness": "-0.18 ± 0.048"},
      {"substance": "E3 ubiquitin-protein ligase RSP5 G331S, P39940", "abundance fitness": "-0.186 ± 0.046"},
      {"substance": "E3 ubiquitin-protein ligase RSP5 P362T, P39940", "abundance fitness": "-0.708 ± 0.067"},
      {"substance": "E3 ubiquitin-protein ligase RSP5 G329Q, P39940", "abundance fitness": "0.18 ± 0.096"},
      {"substance": "E3 ubiquitin-protein ligase RSP5 T354E, P39940", "abundance fitness": "-0.163 ± 0.054"}
    ]}
  ]
}
